PMC3023130

Target: DQ1-MBP85-99 complex, monobiotinylated (SPR)
Assay: SPR

| Kd | Substance |
| --- | --- |
| 13.8 µM | Hy.1B11 TCR double mutant CDR1α N31A and CDR2α S52A |
| 108 µM | Hy.1B11 TCR mutant CDR2β Q48A |
| > 250 µM | Hy.1B11 TCR mutant CDR3α E98A |
| > 250 µM | Hy.1B11 TCR mutant CDR3α F95A |
| 14.3 µM | Hy.1B11 TCR, soluble monomeric wild type |
